Results: PMC4573856 (Genes & Development, 2015)
Like-named read-outs stand apart in the source and are kept apart here. Each block holds one binder with its values, some of them ahead of it.

Key:
[1] = biological target: T1, His6-tagged Dm eIF4E (residues 69-248) (Drosophila melanogaster, UniProt P48598-2 69-248); test: pull-down
T1 sequence (looked up): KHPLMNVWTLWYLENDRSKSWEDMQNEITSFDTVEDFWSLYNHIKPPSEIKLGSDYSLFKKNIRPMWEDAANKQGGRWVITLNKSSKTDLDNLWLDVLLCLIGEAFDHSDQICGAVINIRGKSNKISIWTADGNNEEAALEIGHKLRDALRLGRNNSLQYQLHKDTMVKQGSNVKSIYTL

[2] = biological target: T2, Dm eIF4E (residues 69-248) used for ITC (Drosophila melanogaster, UniProt P48598-2 69-248); test: ITC
T2 sequence (looked up): T1 sequence (looked up)

[3] = biological target: T1, His6-tagged Dm eIF4E (residues 69-248); test: pull-down; remark: listed apart in the source

binding result [1]: binds
B1: Dm eIF4G (residues 578-650) C-terminally fused to GB1 (domain or fragment, Drosophila melanogaster, UniProt O61380 578-650, looked up)
chain: PETTLNDKQDSTDLKVKVSAKISSIINYNEGQWSPNNPSGKKQYDREQLLQLREVKASRIQPEVKNVSILPQP

Kd [2]: 0.5 nM
B2: GB1-stabilized Dm Mxt peptide (residues 577-640) (domain or fragment, Drosophila melanogaster, UniProt Q9VR35 577-640, looked up)
chain: SRVSYDIEHLLYYSMSPHSWTLPTDWQKMQETAPSILRNKDLQDESQRFDGDKYLASIKTAAKR
modifications: also: 15N-labelled, GB1-stabilized (GB1 fusion)

Kd [2]: 5 nM
Binder: SRVSYDIEHLLYYSMSPHSWTLPTDWQKMQETAPSILRNKDLQD (domain or fragment, Drosophila melanogaster, UniProt Q9VR35 577-620, looked up) [GB1-stabilized Dm Mxt peptide C + NC (residues 577-620)]

binding result [3]: binds
Binder: SRVSYDREHLLYYRMSPHSWTLPTDWQKMQETAPSILRNKDLQD (domain or fragment, Drosophila melanogaster, UniProt Q9VR35 577-620, looked up) [GB1-tagged Dm Mxt C + NC IS-RR mutant peptide]

binding result [1]: binds
Binder: SRVSYDREHLLYYRMSPHSWTLPTDWQKMQETAPSILRNKDLQD (domain or fragment, Drosophila melanogaster, UniProt Q9VR35 577-620, looked up) [MBP-tagged Dm Mxt fragment 577-620 IS-RR mutant C-terminally fused to GB1]
